Values quoted from earlier work, collected in patent US20070231406A1, “Use of gallium to treat biofilm-associated infections” (priority 2006, published 2007).

Tested on: Pseudomonas aeruginosa biofilm
Conditions: 20 μg/ml lactoferrin

B1: lactoferrin (protein, UniProt P02788 20-710, looked up)
Lactotransferrin: GRRRSVQWCAVSQPEATKCFQWQRNMRKVRGPPVSCIKRDSPIQCIQAIAENRADAVTLDGGFIYEAGLAPYKLRPVAAEVYGTERQPRTHYYAVAVVKKGGSFQLNELQGLKSCHTGLRRTAGWNVPIGTLRPFLNWTGPPEPIEAAVARFFSASCVPGADKGQFPNLCRLCAGTGENKCAFSSQEPYFSYSGAFKCLRDGAGDVAFIRESTVFEDLSDEAERDEYELLCPDNTRKPVDKFKDCHLARVPSHAVVARSVNGKEDAIWNLLRQAQEKFGKDKSPKFQLFGSPSGQKDLLFKDSAIGFSRVPPRIDSGLYLGSGYFTAIQNLRKSEEEVAARRARVVWCAVGEQELRKCNQWSGLSEGSVTCSSASTTEDCIALVLKGEADAMSLDGGYVYTAGKCGLVPVLAENYKSQQSSDPDPNCVDRPVEGYLAVAVVRRSDTSLTWNSVKGKKSCHTAVDRTAGWNIPMGLLFNQTGSCKFDEYFSQSCAPGSDPRSNLCALCIGDEQGENKCVPNSNERYYGYTGAFRCLAENAGDVAFVKDVTVLQNTDGNNNEAWAKDLKLADFALLCLDGKRKPVTEARSCHLAMAPNHAVVSRMDKVERLKQVLLHQQAKFGRNGSDCPDKFCLFQSETKNLLFNDNTECLARLHGKTTYEKYLGPQYVAGITNLKKCSTSPLLEACEFLRK
Pseudomonas aeruginosa biofilm formation: inhibited
